B1: Prickle-like protein 1 (Homo sapiens), Q96MT3 (parent)
chain: MPLEMEPKMSKLAFGCQRSSTSDDDSGCALEEYAWVPPGLRPEQIQLYFACLPEEKVPYVNSPGEKHRIKQLLYQLPPHDNEVRYCQSLSEEEKKELQVFSAQRKKEALGRGTIKLLSRAVMHAVCEQCGLKINGGEVAVFASRAGPGVCWHPSCFVCFTCNELLVDLIYFYQDGKIHCGRHHAELLKPRCSACDEIIFADECTEAEGRHWHMKHFCCLECETVLGGQRYIMKDGRPFCCGCFESLYAEYCETCGEHIGVDHAQMTYDGQHWHATEACFSCAQCKASLLGCPFLPKQGQIYCSKTCSLGEDVHASDSSDSAFQSARSRDSRRSVRMGKSSRSADQCRQSLLLSPALNYKFPGLSGNADDTLSRKLDDLSLSRQGTSFASEEFWKGRVEQETPEDPEEWADHEDYMTQLLLKFGDKSLFQPQPNEMDIRASEHWISDNMVKSKTELKQNNQSLASKKYQSDMYWAQSQDGLGDSAYGSHPGPASSRRLQELELDHGASGYNHDETQWYEDSLECLSDLKPEQSVRDSMDSLALSNITGASVDGENKPRPSLYSLQNFEEMETEDCEKMSNMGTLNSSMLHRSAESLKSLSSELCPEKILPEEKPVHLPVLRRSKSQSRPQQVKFSDDVIDNGNYDIEIRQPPMSERTRRRVYNFEERGSRSHHHRRRRSRKSRSDNALNLVTERKYSPKDRLRLYTPDNYEKFIQNKSAREIQAYIQNADLYGQYAHATSDYGLQNPGMNRFLGLYGEDDDSWCSSSSSSSDSEEEGYFLGQPIPQPRPQRFAYYTDDLSSPPSALPTPQFGQRTTKSKKKKGHKGKNCIIS
partner: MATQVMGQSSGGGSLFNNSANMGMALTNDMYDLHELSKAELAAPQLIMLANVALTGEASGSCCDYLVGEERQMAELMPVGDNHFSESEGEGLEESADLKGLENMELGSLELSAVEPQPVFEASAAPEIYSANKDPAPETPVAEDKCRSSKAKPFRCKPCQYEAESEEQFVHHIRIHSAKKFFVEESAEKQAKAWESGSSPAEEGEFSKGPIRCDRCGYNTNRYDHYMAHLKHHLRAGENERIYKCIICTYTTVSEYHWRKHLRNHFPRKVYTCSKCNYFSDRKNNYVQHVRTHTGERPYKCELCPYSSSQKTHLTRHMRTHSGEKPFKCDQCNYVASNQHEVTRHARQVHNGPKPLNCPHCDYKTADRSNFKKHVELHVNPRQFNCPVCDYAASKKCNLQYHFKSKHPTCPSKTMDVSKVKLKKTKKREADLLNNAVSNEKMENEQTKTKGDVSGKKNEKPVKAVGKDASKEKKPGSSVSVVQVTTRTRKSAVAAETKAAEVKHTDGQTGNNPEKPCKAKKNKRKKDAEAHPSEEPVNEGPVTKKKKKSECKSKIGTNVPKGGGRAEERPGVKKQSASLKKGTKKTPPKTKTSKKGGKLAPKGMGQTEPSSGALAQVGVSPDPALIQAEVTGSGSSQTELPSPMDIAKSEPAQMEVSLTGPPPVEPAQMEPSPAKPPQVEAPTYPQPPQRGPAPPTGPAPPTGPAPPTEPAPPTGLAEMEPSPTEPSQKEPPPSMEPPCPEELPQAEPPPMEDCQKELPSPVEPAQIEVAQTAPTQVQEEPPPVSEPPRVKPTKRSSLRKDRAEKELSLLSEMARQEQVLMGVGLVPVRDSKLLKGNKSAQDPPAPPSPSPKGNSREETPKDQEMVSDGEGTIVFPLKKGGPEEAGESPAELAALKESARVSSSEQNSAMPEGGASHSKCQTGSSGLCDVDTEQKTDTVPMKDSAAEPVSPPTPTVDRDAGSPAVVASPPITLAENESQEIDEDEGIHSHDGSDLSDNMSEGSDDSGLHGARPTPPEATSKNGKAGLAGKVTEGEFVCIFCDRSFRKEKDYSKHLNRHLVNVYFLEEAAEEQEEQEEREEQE

Variants of: B1
Settings: with rest_mouse Rest

effect of a mutation on the interaction | Variant
decreasing interaction | R104Q

Source: IntAct's records for PubMed 18976727
